T1: recombinant human PlGF-2 (produced in Pichia) (human, UniProt P49763-3 19-170, limits assumed)
T1 construct: also called huPlGF-2; rhuPlGF-2
T1 sequence (looked up): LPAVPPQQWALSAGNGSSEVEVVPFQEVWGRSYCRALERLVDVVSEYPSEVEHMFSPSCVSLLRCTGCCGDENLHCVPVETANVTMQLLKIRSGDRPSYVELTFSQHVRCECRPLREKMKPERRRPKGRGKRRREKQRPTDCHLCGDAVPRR

T2: human PlGF-1 (human, UniProt P49763-2 19-149, limits assumed)
T2 construct: also called huPlGF-1; huPlGF
T2 sequence (looked up): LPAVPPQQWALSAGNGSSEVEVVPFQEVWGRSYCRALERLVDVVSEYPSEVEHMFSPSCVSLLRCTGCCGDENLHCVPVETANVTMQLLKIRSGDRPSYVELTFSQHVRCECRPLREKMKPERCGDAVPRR


Experiments:
[1] = molecular target: T1, recombinant human PlGF-2 (produced in …); assay: Biacore, rhuPlGF-2 (Pichia) immobilized, antibody injected
human PlGF-1 [2] = molecular target: T2, human PlGF-1; assay: ELISA, plate coated with 1 µg/ml huPlGF-1, detection with murine anti-HA and goat anti-murine IgG-HRP, OPD
Method: ELISA plates were coated ON with 1 μg/ml huPlGF-1 in PBS, 200 μL/well, 4° C. After blocking with 1% BSA, 1 hr, RT, a dilution series of scFv16D3/humanized scFv16D3 was added, 200 μL/well, the antibody fragment was allowed to bind for 1 hr, RT. Bound scFv16D3 was detected with murine anti-HA (180 μL/well, 1 hr RT) followed by incubation with goat-anti-murine IgG-HRP (Sigma), 170 μL/well, 1 hr, RT. The assay was developed with OPD.

human PlGF-1 [3] = molecular target: T2, human PlGF-1; assay: ELISA, plate coated with huPlGF-1, detection with anti-huIgG-HRP (Fab specific), OPD
Method: ELISA plates were coated ON with […] huPlGF-1 in PBS, 100 μL/well, 4° C. After blocking with 1% BSA, 1 hr, RT, a dilution series of humanized Fab16D3 was added, 100 μL/well, the antibody fragment was allowed to bind for 1 hr, RT. Bound humanized Fab16D3 was detected with anti-huIgG-HRP(Fab specific) (100 μL/well, 1 hr RT). The assay was developed with OPD.

Row | Binder | Kd [1] [nM] | EC50 (read off the curve) (human PlGF-1 [2]) [µg/mL] | EC50 (read off the curve) (human PlGF-1 [3]) [µg/mL]
1 | humanized scFv of 16D3 (scFv, also called humanized scFv16D3; scFvhp16D3mut) scFv: QVQLQQSGAELVKPGASVKISCKASGYTFTDYYINWVKLAPGQGLEWIGWIYPGSGNTKYNEKFKGKATLTIDTSSSTAYMQLSSLTSEDTAVYFCVRDSPFFDYWGQGTLLTVSSGGGGSGGGGSGGGGSDIVLTQSPDSLAVSLGERVTMNCKSSQSLLNSGMRKSFLAWYQQKPGQSPKLLIYWASTRESGVPDRFTGSGSGTDFTLTISSVQAEDVAVYYCKQSYHLFTFGSGTKLEIKGSYPYDVPDYAGSHHHHHH | 0.195 | ~0.1 | –
2 | scFv of murine antibody 16D3 (scFv, also called scFv16D3; scFv hp16D3) scFv: QIQLQQSGPELVKPGASVKISCKASGYTFTDYYINWVKLKPGQGLEWIGWIYPGSGNTKYNEKFKGKATLTIDTSSSTAYMQLSSLTSEDTAVYFCVRDSPFFDYWGQGTTLTVSSGGGGSGGGGSGGGGSDIVLSQSPSSLAVSAGEKVTMRCKSSQSLLNSGMRKSFLAWYQQKPGQSPKLLIYWASTRESGVPDRFTGSGSGTDFTLTISSVQAEDLAVYYCKQSYHLFTFGSGTKLEIKGSYPYDVPDYAGSHHHHHH | – | ~0.1 | –
3 | murine monoclonal anti-human PlGF antibody 16D3 (antibody, V domains shown, Whole mouse antibody from hybridoma LMBP 6399CB; also called anti-hPlGF; hp16D3mousecomplAB) VH: QIQLQQSGPELVKPGASVKISCKASGYTFTDYYINWVKLKPGQGLEWIGWIYPGSGNTKYNEKFKGKATLTIDTSSSTAYMQLSSLTSEDTAVYFCVRDSPFFDYWGQGTTLTVSS VL: DIVLSQSPSSLAVSAGEKVTMRCKSSQSLLNSGMRKSFLAWYQQKPGQSPKLLIYWASTRESGVPDRFTGSGSGTDFTLTISSVQAEDLAVYYCKQSYHLFTFGSGTKLEIK | 0.29 | – | –
4 | humanized Fab 16D3 (Fab, V domains shown, also called hp16D3mutcomplFab; hp16D3mutcmplFab) VH: QVQLQQSGAELVKPGASVKISCKASGYTFTDYYINWVKLAPGQGLEWIGWIYPGSGNTKYNEKFKGKATLTIDTSSSTAYMQLSSLTSEDTAVYFCVRDSPFFDYWGQGTLLTVSS VL: DIVLTQSPDSLAVSLGERVTMNCKSSQSLLNSGMRKSFLAWYQQKPGQSPKLLIYWASTRESGVPDRFTGSGSGTDFTLTISSVQAEDVAVYYCKQSYHLFTFGSGTKLEIK | 0.131 | – | ~90
5 | humanized antibody 16D3 IgG4 kappa (antibody, V domains shown, Expressed transiently in HEK 293 cells; also called hu16D3; Hu16D3 IgG4κ) VH: QVQLQQSGAELVKPGASVKISCKASGYTFTDYYINWVKLAPGQGLEWIGWIYPGSGNTKYNEKFKGKATLTIDTSSSTAYMQLSSLTSEDTAVYFCVRDSPFFDYWGQGTLLTVSS VL: DIVLTQSPDSLAVSLGERVTMNCKSSQSLLNSGMRKSFLAWYQQKPGQSPKLLIYWASTRESGVPDRFTGSGSGTDFTLTISSVQAEDVAVYYCKQSYHLFTFGSGTKLEIK | 0.161 | – | –

From US20110123525A1 (THROMBOGENICS N V, published 2011)
